B1: BMP-15: Recombinant ovine BMP-15 produced in-house in transfected 293H cells, partially purified by hydrophobic interaction chromatography; dosed as % v/v (protein, UniProt Q9MZE2 269-393, looked up)
Bone morphogenetic protein 15: QAGSIASEVPGPSREHDGPESNQCSLHPFQVSFQQLGWDHWIIAPHLYTPNYCKGVCPRVLHYGLNSPNHAIIQNLVSELVDQNVPQPSCVPYKYVPISILLIEANGSILYKEYEGMIAQSCTCR
B2: GDF-9: Recombinant mouse GDF-9 produced in-house in transfected 293H cells, partially purified by HIC (protein, UniProt Q07105 307-441, looked up)
Growth/differentiation factor …: GQKAIRSEAKGPLLTASFNLSEYFKQFLFPQNECELHDFRLSFSQLKWDNWIVAPHRYNPRYCKGDCPRAVRHRYGSPVHTMVQNIIYEKLDPSVPRPSCVPGKYSPLSVLTIEPDGSIAYKEYEDMIATRCTCR

Key:
cumulus cells = experiment: Cumulus cell apoptosis in oocytectomized complexes (OOX) and COC, TUNEL with confocal microscopy; assay type: cell-based, Bovine; conditions: for effect on incidence of cumulus cell apoptosis: OOX cultured with increasing doses (GDF-9 0-175 ng/ml, BMP-6 0-100 ng/ml, BMP-15 0-20% v/v, 5-50 DO), presence or absence of FSH
Method: Bovine ovaries were collected from local abattoir and transported to the laboratory in warm saline (30-35° C.). Cumulus-oocyte complexes (COC) were aspirated from antral follicles (2- to 8-mm diameter) using an 18-gauge needle and a 10-ml syringe containing ˜2 ml aspiration media (Hepes-buffered Tissue Cultured Medium-199: TCM-199, ICN Biochemicals, Irvine, Calif., USA) supplemented with 50 μg/ml kanamycin (Sigma-Aldrish, St. louis, Mo.), 4 mg/ml fatty acid-free bovine serum albumin (FAF-BSA) (ICPbio ltd, Auckland, NZ). Intact COC with compact cumulus vestment greater than five cell layers and evenly pigmented cytoplasm were selected under a dissecting microscope and washed twice in Hepes-buffered TCM-199 and once in corresponding culturing media.
The cytoplasm of each oocyte was microsurgically removed from the COC (oocytectomy) using a micromanipulator as described in Buccione et al (Buccione et al. (1990) Dev Biol 138, 16-25.). The resulting oocytectomized complex (OOX) consists of a hollow zona pellucida surrounded by several layers of intact CC.
Denuded oocytes (DO) were generated by removing CC from COC by vortexing for approximately 4 minutes in 2 ml H-TCM-199/BSA. Any remaining CC were removed by repeated passage of the oocytes through a fine-bore fire-polished glass pipette in H-TCM-199/BSA.
CC apoptoic DNA was detected using TUNEl (Roche Diagnostic, Penzberg, Germany) according to the manufacturer's instructions. Briefly, following culture COC and OOX complexes were washed twice in PBS (pH 7.4) containing 1% BSA, fixed in 4% paraformaldehyde in PBS (pH 7.4) overnight at 4° C. and washed twice with PBS/BSA before placing on Cell-Tak-coated coverslips (Beckton Dickinson Biosciences, Franklin lakes, N.J.). Complexes were then permeabilized in 0.11/u Triton X-100 in 0.1% sodium citrate for 1 hour at room temperature and washed 3 times in PBS/BSA. The complexes were then incubated in fluorescein-conjugated dUTP and terminal deoxynucleotide transferase (TUNEl reagents, Roche) for 1 hour at 37° C. in the dark. Positive controls were incubated in DNAse 1 (0.005 U/µl), which cleaves all DNA, for 20 minutes at room temperature and washed twice in PBS/BSA before TUNEl. Negative controls were incubated in fluorescein-dUTP in the absence of TdT. After TUNEl, complexes were washed twice in PBS/BSA and counterstained with propidium iodide 0.5 μg/ml (PI) plus RNase A (0.1 mg/ml) for 1 hour at room temperature in the dark to label all nuclei. Complexes were then washed twice in PBS/BSA and mounted with slight coverslip compression in VectaShield anti-bleaching solution (Vector labs, Burlingame, Calif.), and stored in the dark at 4° C. for confocal analysis.
Apoptosis in COC and OOX was visualised and quantified using confocal microscopy. Dual fluorescence emission from CC was detected using a Nikon C1 Confocal Scanning Head and a Nikon TE2000E microscope (Nikon, Tokyo, Japan). Simultaneous emission capture of the apoptotic signal (fluorescein, lacer excitation 488 nm, emission 510-530 nm) and the nuclear signal (propidium iodide, excitation lacer 532, emission 590-640 nm) was performed.
In order to generate an accurate representation of the overall apoptotic incidence for all complexes, the depth of each complex was measured through a Z series to divide the construct into three percentiles (optical Z plane sections) at 25%, 50% and 75%. These optical section images were acquired and saved as independent colour channels (green, apoptotic cumulus fluorescence and red, nuclear cumulus fluorescence). The captured images were then processed in Scanalytics IPlab software Version 3.6. (Scanalytics, Fairfax, Va.). Quantification of CC number (for each colour channel) was independently measured using a macro script utilizing an auto segmentation filter for each optical section percentile (3 optical “z”-plane sections for each complex).

[1] = tested on: Smad 1-responsive BRE-luciferase reporter; experiment: Smad 1-responsive BRE-luciferase reporter in mural granulosa cells from large antral follicles; assay type: cell-based, marmoset monkey, Callithrix jacchus; conditions: 48 h; 0.5 ng/ml TGFβ1, 88-265 ng/ml GDF9, 50 ng/ml BMP7 or 60 mouse oocytes
Method: FIGS. 18A and 18B show the activation of the TGF-β signalling pathway by GDF9 and oocytes. MGC from large follicles were transiently transfected with either a Smad 3-responsive CAGA-luciferase reporter construct (A) or a Smad 1-responsive BRE-luciferase reporter construct (B). Cells were subsequently left untreated, treated with 0.5 ng/ml TGFβ1, 88-265 ng/ml GDF9, 50 ng/ml BMP7 or co-cultured with 60 mouse oocytes. Cells were cultured for 48 h after which time luciferase activity was measured from cell extracts. Bars represent means+/− SEM from 3 replicate experiments expressed as a fold change relative to control.
Luciferase reporter constructs responsive to specific phosphorylated Smads were used to detect the activation of mural GC Smad proteins by recombinant GDF9 Mural GCs were collected and processed as described above, except cells were given a final wash in DMEM(MP Biomedicals, Seven Hills, Australia)+2% FCS (Trace Biosciences, Castle Hill, Australia). Following the final wash, cells were transferred to individual wells of a 96-well plate (Falcon) and cultured at 1.6×10^5 cells/ml. After 4 hours of culture, cells were transiently transfected with 50 ng of luciferase reporter construct DNA using Fugene 6 (Roche Diagnostics, Castle Hill, Australia). 18 hours after transfection, medium was aspirated from cells and replaced with DMEM supplemented with 0.1% FCS. Various ligands were added to cells at this point (see below) and the culture period extended for a further 48 hours. Experiments were terminated by removing media from wells and freezing plates at −20° C. […]
Seven adult female marmosets were primed with […] for 6 days, whole ovaries were removed on day 7, follicles manually excised, and GC were then collected from 3 size classes: periantral (PA; 0.42-0.66 mm), small antral (SA; 0.66-1.5 mm) and large antral (LA; >1.5 mm). […] In order to determine the effects of GDF9 on marmoset GC proliferation, we employed a GC bioassay whereby after 24 h ^3H-thymidine incorporation is assessed as an indicator of DNA synthesis and cellular proliferation. […]

| Molecule | effect on incidence of cumulus cell apoptosis (cumulus cells) | effect on cumulus cell apoptosis (cumulus cells; OOX treated with 100 ng/ml BMP-7 and/or 10% BMP-15) | effect on CC apoptosis, test for additive effect (cumulus cells; OOX treated with DO, 10 ng/ml BMP-6 and/or 10% v/v BMP-15) | BRE-luciferase activity compared to control levels [1] |
| --- | --- | --- | --- | --- |
| B1 | significantly reduced | significantly reduced | significantly (P<0.001) decreased | – |
| B2 | no significant effect | – | – | not activated |

From patent US8530235B2, “Medium that supports culture of an oocyte and modulation of granulosa cell apoptosis” (Adelaide Research & Innovation Pty Ltd., priority 2005, dated 2013)
